{"source": "paper PMC3529988", "origin": "cited, not measured here", "target": "E2F TD (Homo sapiens) (UniProt Q01094)", "sequence (Q01094 368-437)": "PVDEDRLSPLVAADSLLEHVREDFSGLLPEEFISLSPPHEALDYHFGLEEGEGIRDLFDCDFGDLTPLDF", "data": [{"substance": "Rb pocket (from UniProt P06400)", "values": [{"measurement": "Kd", "result": 0.05, "unit": "µM"}]}]}
